Measured values taken from article doi:10.1101/2021.10.29.466147 (bioRxiv, 2021).

T1: Smc4 V721C, R1417C (SMC-kleisin ring circularization in vitro) (S. cerevisiae, UniProt Q12267 1-1418, V721C | R1417C)
T1 sequence: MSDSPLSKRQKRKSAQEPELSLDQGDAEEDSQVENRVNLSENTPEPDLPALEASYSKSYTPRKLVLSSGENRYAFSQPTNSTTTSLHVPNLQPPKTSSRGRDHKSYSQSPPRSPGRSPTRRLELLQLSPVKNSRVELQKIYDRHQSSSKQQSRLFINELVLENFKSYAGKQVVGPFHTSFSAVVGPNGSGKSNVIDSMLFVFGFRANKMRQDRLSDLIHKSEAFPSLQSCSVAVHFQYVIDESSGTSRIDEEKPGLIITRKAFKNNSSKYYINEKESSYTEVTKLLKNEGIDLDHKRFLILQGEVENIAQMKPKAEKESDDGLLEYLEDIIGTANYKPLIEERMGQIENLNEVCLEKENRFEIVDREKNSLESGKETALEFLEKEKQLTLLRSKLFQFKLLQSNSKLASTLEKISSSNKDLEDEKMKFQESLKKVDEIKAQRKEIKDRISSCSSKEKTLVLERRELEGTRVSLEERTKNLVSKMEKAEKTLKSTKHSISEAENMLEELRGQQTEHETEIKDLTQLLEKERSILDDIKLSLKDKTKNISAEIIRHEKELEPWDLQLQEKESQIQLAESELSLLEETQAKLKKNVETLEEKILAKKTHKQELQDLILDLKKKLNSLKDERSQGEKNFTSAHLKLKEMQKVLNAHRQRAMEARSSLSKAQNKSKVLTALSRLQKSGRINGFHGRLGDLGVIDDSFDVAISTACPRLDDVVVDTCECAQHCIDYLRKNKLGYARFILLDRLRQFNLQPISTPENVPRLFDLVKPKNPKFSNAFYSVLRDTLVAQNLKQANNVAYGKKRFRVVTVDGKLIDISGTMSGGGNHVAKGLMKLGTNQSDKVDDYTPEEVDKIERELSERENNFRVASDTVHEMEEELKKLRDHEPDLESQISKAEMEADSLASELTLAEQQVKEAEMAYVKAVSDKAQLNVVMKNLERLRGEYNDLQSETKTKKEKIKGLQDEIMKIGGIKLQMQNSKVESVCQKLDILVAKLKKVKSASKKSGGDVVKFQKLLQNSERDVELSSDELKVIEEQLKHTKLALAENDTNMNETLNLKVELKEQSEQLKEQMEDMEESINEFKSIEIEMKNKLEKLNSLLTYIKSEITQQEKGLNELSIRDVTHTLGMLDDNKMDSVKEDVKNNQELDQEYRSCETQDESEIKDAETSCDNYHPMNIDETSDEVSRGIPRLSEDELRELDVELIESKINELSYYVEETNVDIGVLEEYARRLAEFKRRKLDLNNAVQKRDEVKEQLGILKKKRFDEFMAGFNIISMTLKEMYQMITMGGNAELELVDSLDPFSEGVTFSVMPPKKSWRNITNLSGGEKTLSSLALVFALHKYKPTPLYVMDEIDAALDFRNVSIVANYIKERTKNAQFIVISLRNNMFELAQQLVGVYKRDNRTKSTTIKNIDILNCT

T2: Ycs4, HEAT-repeat subunit I of S. cerevisiae condensin (S. cerevisiae, UniProt Q06156 1-1176)
T2 sequence: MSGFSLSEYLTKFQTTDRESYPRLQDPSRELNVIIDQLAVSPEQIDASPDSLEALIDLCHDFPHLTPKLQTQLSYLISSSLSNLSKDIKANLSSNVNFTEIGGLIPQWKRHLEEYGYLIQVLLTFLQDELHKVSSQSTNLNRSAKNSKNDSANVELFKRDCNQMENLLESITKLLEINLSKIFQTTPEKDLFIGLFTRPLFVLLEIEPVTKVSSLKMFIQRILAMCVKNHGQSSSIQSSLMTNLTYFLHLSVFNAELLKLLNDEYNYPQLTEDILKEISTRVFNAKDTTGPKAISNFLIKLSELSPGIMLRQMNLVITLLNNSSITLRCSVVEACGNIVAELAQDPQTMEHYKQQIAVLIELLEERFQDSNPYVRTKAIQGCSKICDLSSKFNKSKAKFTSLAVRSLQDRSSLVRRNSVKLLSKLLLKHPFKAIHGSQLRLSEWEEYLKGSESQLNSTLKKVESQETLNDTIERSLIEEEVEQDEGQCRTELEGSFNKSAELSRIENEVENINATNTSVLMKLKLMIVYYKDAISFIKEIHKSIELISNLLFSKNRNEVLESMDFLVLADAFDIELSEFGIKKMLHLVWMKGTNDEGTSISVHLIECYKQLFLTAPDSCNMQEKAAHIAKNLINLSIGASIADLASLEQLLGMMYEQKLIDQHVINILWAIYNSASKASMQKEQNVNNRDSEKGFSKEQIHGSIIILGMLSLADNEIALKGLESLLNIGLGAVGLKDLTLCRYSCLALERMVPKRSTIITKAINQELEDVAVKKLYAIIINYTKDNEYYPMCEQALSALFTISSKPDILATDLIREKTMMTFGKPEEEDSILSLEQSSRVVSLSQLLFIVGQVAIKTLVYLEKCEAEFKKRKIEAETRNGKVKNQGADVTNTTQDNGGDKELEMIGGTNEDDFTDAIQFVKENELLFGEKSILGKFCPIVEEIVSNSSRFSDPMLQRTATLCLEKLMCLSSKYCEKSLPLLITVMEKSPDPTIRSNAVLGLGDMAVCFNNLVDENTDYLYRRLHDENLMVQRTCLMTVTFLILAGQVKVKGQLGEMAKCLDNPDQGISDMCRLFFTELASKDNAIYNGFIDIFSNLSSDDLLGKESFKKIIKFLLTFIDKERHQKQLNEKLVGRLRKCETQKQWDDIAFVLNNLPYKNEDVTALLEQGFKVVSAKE


Columns and labels:
[1] = target: T1, Smc4 V721C, R1417C (SMC-kleisin ring …); test: cross-linking
[2] = target: T2, Ycs4, HEAT-repeat subunit I of S. …; test: cryo-EM structure

binding result [1]	binding result [2]	Binder
binds		Smc2 K639C, the Smc2 part of the Smc2–TEV–Brn1 fusion (SMC-kleisin ring circularization in vitro) (natural protein, S. cerevisiae) MKVEELIIDGFKSYATRTVITDWDPQFNAITGLNGSGKSNILDAICFVLGIASMSTVRASSLQDLIYKRGQAGVTKASVTIVFDNTDKSNSPIGFTNSPQISVTRQVVLGGTSKYLINGHRAPQQSVLQLFQSVQLNINNPNFLIMQGKITKVLNMKPSEILSLIEEAAGTKMFEDRREKAERTMSKKETKLQENRTLLTEEIEPKLEKLRNEKRMFLEFQSTQTDLEKTERIVVSYEYYNIKHKHTSIRETLENGETRMKMLNEFVKKTSEEIDSLNEDVEEIKLQKEKELHKEGTISKLENKENGLLNEISRLKTSLSIKVENLNDTTEKSKALESEIASSSAKLIEKKSAYANTEKDYKMVQEQLSKQRDLYKRKEELVSTLTTGISSTGAADGGYNAQLAKAKTELNEVSLAIKKSSMKMELLKKELLTIEPKLKEATKDNELNVKHVKQCQETCDKLRARLVEYGFDPSRIKDLKQREDKLKSHYYQTCKNSEYLKRRVTNLEFNYTKPYPNFEASFVHGVVGQLFQIDNDNIRYATALQTCAGGRLFNVVVQDSQTATQLLERGRLRKRVTIIPLDKIYTRPISSQVLDLAKKIAPGKVELAINLIRFDESITKAMEFIFGNSLICEDPETACKITFHPKIRARSITLQGDVYDPEGTLSGGSRNTSESLLVDIQKYNQIQKQIETIQADLNHVTEELQTQYATSQKTKTIQSDLNLSLHKLDLAKRNLDANPSSQIIARNEEILRDIGECENEIKTKQMSLKKCQEEVSTIEKDMKEYDSDKGSKLNELKKELKLLAKELEEQESESERKYDLFQNLELETEQLSSELDSNKTLLHNHLKSIESLKLENSDLEGKIRGVEDDLVTVQTELNEEKKRLMDIDDELNELETLIKKKQDEKKSSELELQKLVHDLNKYKSNTNNMEKIIEDLRQKHEFLEDFDLVRNIVKQNEGIDLDTYRERSKQLNEKFQELRKKVNPNIMNMIENVEKKEAALKTMIKTIEKDKMKIQETISKLNEYKRETLVKTWEKVTLDFGNIFADLLPNSFAKLVPCEGKDVTQGLEVKVKLGNIWKESLIELSGGQRSLIALSLIMALLQFRPAPMYILDEVDAALDLSHTQNIGHLIKTRFKGSQFIVVSLKEGMFANANRVFRTRFQDGTSVVSIM
	binds	Smc2 E1113Q (Walker B mutant, EQ) of the S. cerevisiae condensin holo complex (natural protein) MKVEELIIDGFKSYATRTVITDWDPQFNAITGLNGSGKSNILDAICFVLGIASMSTVRASSLQDLIYKRGQAGVTKASVTIVFDNTDKSNSPIGFTNSPQISVTRQVVLGGTSKYLINGHRAPQQSVLQLFQSVQLNINNPNFLIMQGKITKVLNMKPSEILSLIEEAAGTKMFEDRREKAERTMSKKETKLQENRTLLTEEIEPKLEKLRNEKRMFLEFQSTQTDLEKTERIVVSYEYYNIKHKHTSIRETLENGETRMKMLNEFVKKTSEEIDSLNEDVEEIKLQKEKELHKEGTISKLENKENGLLNEISRLKTSLSIKVENLNDTTEKSKALESEIASSSAKLIEKKSAYANTEKDYKMVQEQLSKQRDLYKRKEELVSTLTTGISSTGAADGGYNAQLAKAKTELNEVSLAIKKSSMKMELLKKELLTIEPKLKEATKDNELNVKHVKQCQETCDKLRARLVEYGFDPSRIKDLKQREDKLKSHYYQTCKNSEYLKRRVTNLEFNYTKPYPNFEASFVHGVVGQLFQIDNDNIRYATALQTCAGGRLFNVVVQDSQTATQLLERGRLRKRVTIIPLDKIYTRPISSQVLDLAKKIAPGKVELAINLIRFDESITKAMEFIFGNSLICEDPETAKKITFHPKIRARSITLQGDVYDPEGTLSGGSRNTSESLLVDIQKYNQIQKQIETIQADLNHVTEELQTQYATSQKTKTIQSDLNLSLHKLDLAKRNLDANPSSQIIARNEEILRDIGECENEIKTKQMSLKKCQEEVSTIEKDMKEYDSDKGSKLNELKKELKLLAKELEEQESESERKYDLFQNLELETEQLSSELDSNKTLLHNHLKSIESLKLENSDLEGKIRGVEDDLVTVQTELNEEKKRLMDIDDELNELETLIKKKQDEKKSSELELQKLVHDLNKYKSNTNNMEKIIEDLRQKHEFLEDFDLVRNIVKQNEGIDLDTYRERSKQLNEKFQELRKKVNPNIMNMIENVEKKEAALKTMIKTIEKDKMKIQETISKLNEYKRETLVKTWEKVTLDFGNIFADLLPNSFAKLVPCEGKDVTQGLEVKVKLGNIWKESLIELSGGQRSLIALSLIMALLQFRPAPMYILDQVDAALDLSHTQNIGHLIKTRFKGSQFIVVSLKEGMFANANRVFRTRFQDGTSVVSIM
binds		Brn1 K709C, the Brn1 part of the Smc2–TEV–Brn1 fusion (SMC-kleisin ring circularization in vitro) (natural protein, S. cerevisiae) MTTQLRYENNDDDERVEYNLFTNRSTMMANFEEWIKMATDNKINSRNSWNFALIDYFYDLDVLKDGENNINFQKASATLDGCIKIYSSRVDSVTTETGKLLSGLAQRKTNGASNGDDSNGGNGEGLGGDSDEANIEIDPLTGMPISNDPDVNNTRRRVYNRVLETTLVEFETIKMKELDQELIIDPLFKKALVDFDEGGAKSLLLNTLNIDNTARVIFDASIKDTQNVGQGKLQRKEEELIERDSLVDDENEPSQSLISTRNDSTVNDSVISAPSMEDEILSLGMDFIKFDQIAVCEISGSIEQLRNVVEDINQAKDFIENVNNRFDNFLTEEELQAAVPDNAEDDSDGFDMGMQQELCYPDENHDNTSHDEQDDDNVNSTTGSIFEKDLMAYFDENLNRNWRGREHWKVRNFKKANLVNKESDLLEETRTTIGDTTDKNTTDDKSMDTKKKHKQKKVLEIDFFKTDDSFEDKVFASKGRTKIDMPIKNRKNDTHYLLPDDFHFSTDRITRLFIKPGQKMSLFSHRKHTRGDVSSGLFEKSTVSANHSNNDIPTIADEHFWADNYERKEQEEKEKEQSKEVGDVVGGALDNPFEDDMDGVDFNQAFEGTDDNEEASVKLDLQDDEDHKFPIRENKVTYSRVSKKVDVRRLKKNVWRSINNLIQEHDSRKNREQSSNDSETHTEDESTKELKFSDIIQGISKMYSDDTLCDISTSFCFICLLHLANEHGLQITHTENYNDLIVNYEDLATTQAAS
